# B1: Metallosphaera sedula crotonyl-CoA hydratase/(S)-3-hydroxybutyryl-CoA dehydrogenase Msed_0399, SEQ ID NO:16, recombinant (Metallosphaera sedula DSM 5348) (protein)
# chain: MKVTVIGSGVMGHGIAELAAIAGNEVWMNDISTEILQQAMERIKWSLSKLRESGSLKEGVEQVLARIHPETDQAQALKGSDFVIEAVKEDLELKRTIFRNAEAHASPSAVLATNTSSLPISEIASVLKSPQRVVGMHFFNPPVLMPLVEIVRGKDTSDEVVKTTAEMAKSMNKETIVVKDVPGFFVNRVLLRIMEAGCYLVEKGIASIQEVDSSAIEELGFPMGVFLLADYTGLDIGYSVWKAVTARGFKAFPCSSTEKLVSQGKLGVKSGSGYYQYPSPGKFVRPTLPSTSKKLGRYLISPAVNEVSYLLREGIVGKDDAEKGCVLGLGLPKGILSYADEIGIDVVVNTLEEMRQTSGMDHYSPDPLLLSMVKEGKLGRKSGQGFHTYAHEEAKYSTIVVRVEPPLAWIVLNRPTRYNAINGDMIREINQALDSLEEREDVRVIAITGQGRVFSAGADVTEFGSLTPVKAMIASRKFHEVFMKIQFLTKPVIAVINGLALGGGMELALSADFRVASKTAEMGQPEINLGLIPGGGGTQRLSRLSGRKGLELVLTGRRVKAEEAYRLGIVEFLAEPEELESEVRKLANAIAEKSPLAVASAKLAYKLGEETHIWTGTSLEASLFGLLFSTKDFEEGVRAFLEKRKPNFRGE
# B2: Metallosphaera sedula acetoacetyl-CoA β-ketothiolase Msed_0656, SEQ ID NO:17, recombinant (Metallosphaera sedula DSM 5348) (protein)
# chain: MPDVYIVSAVRTPIGRFGGSLKSVKPQMLGAIAIKEALRRANTDPSRVELTIMGNVLRSGHGQDLARQAALLAGIPWEVDGYCVDMVCSSGMMGVTNAAQMIKSGDADVVVAGGMESMSQSMLAVNSEVRWGVKFLSGKSLNFIDTMLVDGLTDPFNLKLMGQEADMVARERDISRRELDEVAFESHRRAHQAWEKGLFKSEVIPVNLDEGKLERDEGIRPDTTMEKLSSLKPAFTENGYHTAGNSSQISDGAVAMVLMSEKAVKEFGVDPVAKILGYSWVGIESWRFTEAPLYSVRKLLTRLNMNITQFDYFENNEAFAVNNVLFHRYLGVPYDQLNVFGGAIALGHPIGASGARIMVTLLNVLSKMNATRGIASICHGVGGSTAIALELLRPL
# B3: Msed_1321: M. sedula 4-hydroxybutyryl-CoA dehydratase, SEQ ID NO:15 (protein, listed as Metallosphaera sedula)
# chain: MVVRTGEQYLQSISNRSKVEIYVMGREVKDVTKHPFLKPSVMSFKATFDAAWEEDTKELGRAWSPYLEEEINRFNHIHRSPDDLAAKVKLLRKLSHKTGACFQRCVGWDSLNTLHIVTTMMAKKGKTEVRDRFVEYLKYVQKNDLALAGAMTDAKGIRNLKPSQQPNKNAYLRITEVTKDGIYVSGAKANITGVAATEEMVVLPTRAMGPEDKDYAVAFAIPTDTEGVKIVVGRQLNDARRMEEGEIDGLPYFYNHEGLVIFDNVFVPMNRVFLAGEWEYTGTLVEIFSAYHRQGYGGCKAGLGDVIIGASADLAKQIGVDRASHVQDKLTEMIFLTETMYSAGIAASLNAVKMCDNCWWVNPMHANVTKHLVARFPSQIAQLSIDLAGGIVGTAPSEWDLKNPKLKEYISRYLQGAEDFTAEDRLRMVRLVENVSMGVAFQIESVHGAGSPAAQRIMFSRLYDLNFAQEVAKKLAGRKSEVKFTSKAEPWRESQSEAEAKEAGLKS
# B4: clostridal homolog: 4-hydroxybutyryl-CoA dehydratase from Clostridium aminobutyricum (protein, UniProt P55792 1-490, looked up)
# 4-hydroxybutyryl-CoA …: MLMTAEQYIESLRKLNTRVYMFGEKIENWVDHPMIRPSINCVAMTYELAQDPQYADLMTTKSNLIGKTINRFANLHQSTDDLRKKVKMQRLLGQKTASCFQRCVGMDAFNAVFSTTYEIDQKYGTNYHKNFTEYLKYIQENDLIVDGAMTDPKGDRGLAPSAQKDPDLFLRIVEKREDGIVVRGAKAHQTGSINSHEHIIMPTIAMTEADKDYAVSFACPSDADGLFMIYGRQSCDTRKMEEGADIDLGNKQFGGQEALVVFDNVFIPNDRIFLCQEYDFAGMMVERFAGYHRQSYGGCKVGVGDVVIGAAALAADYNGAQKASHVKDKLIEMTHLNETLYCCGIACSAEGYPTAAGNYQIDLLLANVCKQNITRFPYEIVRLAEDIAGGLMVTMPSEADFKSETVVGRDGETIGDFCNKFFAAAPTCTTEERMRVLRFLENICLGASAVGYRTESMHGAGSPQAQRIMIARQGNINAKKELAKAIAGIK
# Experiments:
# [1] = at 65 C; cited from earlier work
# [2] = substrate: C[C@H](O)CC(=O)SCCNC(=O)CCNC(=O)[C@H](O)C(C)(C)COP(=O)(O)OP(=O)(O)OC[C@H]1O[C@@H](n2cnc3c(N)ncnc32)[C@H](O)[C@@H]1OP(=O)(O)O; assay: (S)-3-hydroxybutyryl-CoA dehydrogenase reaction of Msed_0399, NAD+ reduction at 340 nm; format: biochemical, Metallosphaera sedula; conditions: other: Msed_0399 (3HB-CoA), 70° C., pH 7.0
# Text: (§1) The crotonyl-CoA hydratase/(S)-3-hydroxybutyrl-CoA dehydrogenase activity of a polypeptide may be determined by routine methods known in the art. An example of such a polypeptide includes an amino acid sequence encoded by coding sequence Msed_0399 of Genbank accession NC_009440 and disclosed at SEQ ID NO:16.
# (§2) Heterologous expression of M. sedula genes in E. coli. Msed_0406, Msed_1321, Msed_0399, and Msed_0656 were amplified from genomic DNA using primers from IDT Technologies (Coralville, Iowa). Msed_0406 was cloned into pET46-Ek/LIC with an N-terminal His6 tag, as described in Example 1. Msed_1321 was cloned with an N-terminal His6 tag into a modified pETA vector, into which the anaerobic hya promoter from E. coli had been inserted to allow for anaerobically-regulated expression (Sun et al., 2010. PLoS One 5:e10526). Msed_0399 was cloned into pET21b without a His-tag, and Msed_0656 was cloned into pCDF-Ek/LIC with an N-terminal His6 tag. All four constructs were individually cloned into NovaBlue GigaSingles E. coli competent cells and selected by growth on LB-agar supplemented with antibiotic. Sequences were confirmed by Eton Biosciences, Inc. (Durham, N.C.). Next, the plasmids were transformed into E. coli Rosetta 2 (DE3) cells for protein expression. Rosetta strains containing pET46-0406, pET21b-0399, and pCDF-0656 were grown and expressed aerobically at 37° C. for 16 h in Studier's auto-inducing medium ZYM-5052 (Studier, 2005. Protein Expression and Purification 41:207-234). Rosetta cells containing pETA-1321 plasmid were grown in a 2 L Applikon bioreactor (37° C., 800 rpm, pH 6.7, 0.5 slpm air) in Studier's non-inducing medium ZYM-505 with 0.5 mM FeCl3. […]
# (§3) Crotonyl-CoA hydratase/(S)-3-Hydroxybutyryl-CoA dehydrogenase (Msed_0399). […] Enzyme activity was measured spectrophotometrically at 70° C. by following NAD^+ reduction at 340 nm (extinction coeffienct at 340 nm=[…]) (Berg et al., 2007. Science 318:1782-1786). […]
# [3] = substrate: C/C=C/C(=O)SCCNC(=O)CCNC(=O)[C@H](O)C(C)(C)COP(=O)(O)OP(=O)(O)OC[C@H]1O[C@@H](n2cnc3c(N)ncnc32)[C@H](O)[C@@H]1OP(=O)(O)O; assay: crotonyl-CoA hydratase reaction of Msed_0399, NAD+ reduction at 340 nm; format: biochemical, Metallosphaera sedula; conditions: other: Msed_0399 (C-CoA), 70° C., pH 7.0
# Text: as §1, §2, §3
# [4] = Crotonyl-CoA hydratase assay, NAD+ reduction at 340 nm; format: biochemical; conditions: C-CoA, hydratase reaction; 70° C
# Protocol: (§4) Crotonyl-CoA hydratase/(S)-3-Hydroxybutyryl-CoA dehydrogenase (Msed_0399). The enzyme was purified first using a Q-sepharose HiLoad 16/10 anion exchange column (GE Healthcare). The protein was loaded onto the column with 20 mM Tris, pH 8.0, and eluted with 20 mM Tris, 1 M NaCl, pH 8.0 using a linear elution gradient. Fractions containing Msed_0399 were confirmed with SDS-PAGE, collected and dialyzed into buffer for size exclusion chromatography (50 mM potassium phosphate, 150 mM NaCl, pH 7.0). The partially-purified protein was further separated on a HiLoad 26/600 Superdex 200 PG column, and the elution fractions containing Msed_0399 were collected, concentrated, and dialyzed into reaction buffer (100 mM MOPS, pH 7.5), and then either stored at 4° C. for immediate use or mixed with glycerol to 20% and stored at −20° C. Enzyme activity was measured spectrophotometrically at 70° C. by following NAD^+ reduction at 340 nm (extinction coeffienct at 340 nm=[…]) (Berg et al., 2007. Science 318:1782-1786). The assay mixture contained 20 mM MOPS (pH 7.0), 5 mM MgCl2, 2 mM NAD^+, 0.5 mM crotonyl-CoA or (S)-3-hydroxybutyryl-CoA, and purified enzyme. The reaction mixture was preheated for 2 min at 70° C. and the reaction initiated by addition of substrate.
# [5] = (S)-3-Hydroxybutyryl-CoA dehydrogenase assay, NAD+ reduction at 340 nm; format: biochemical; conditions: 3HB-CoA, dehydrogenase reaction; 70° C
# Protocol: as §4
# [6] = Acetoacetyl-CoA β-ketothiolase discontinuous DTNB assay; format: biochemical; conditions: 70° C
# [7] = substrate: CC(=O)CC(=O)SCCNC(=O)CCNC(=O)[C@H](O)C(C)(C)COP(=O)(O)OP(=O)(O)OC[C@H]1O[C@@H](n2cnc3c(N)ncnc32)[C@H](O)[C@@H]1OP(=O)(O)O; assay: purified protein, by the assay type; conditions: other: Msed_0656, 70° C., pH 7.5; 70.0 °C
# [8] = 4-hydroxybutyryl-CoA dehydratase coupled spectrophotometric assay; format: biochemical; conditions: 70° C
# Protocol: (§5) 4-hydroxybutyryl-CoA dehydratase (Msed_1321). The enzyme was purified using a 5 ml Bio-Scale Mini Profinity IMAC cartridge (Bio-Rad). The soluble, heat-treated lysate was loaded onto the column with binding buffer (50 mM Tris, 300 mM NaCl, 3.5 mM DTT, 20 mM imidazole, pH 8.0) and the his-tagged enzyme removed with elution buffer (50 mM Tris, 300 mM NaCl, 3.5 mM DTT, 500 mM imidazole, pH 8.0). The fraction collector was positioned inside the anaerobic chamber, and fractions containing enzyme were collected, concentrated, and dialyzed into reaction buffer (100 mM potassium phosphate, pH 7.5, 1 mM DTT). The enzyme solution was either stored at room temperature inside the anaerobic chamber for immediate use or mixed with glycerol to 20% and stored at −20° C. in a sealed vacuum dessicator. Enzyme activity was measured aerobically in a coupled spectrophotometric assay at 70° C. The assay mixture contained 20 mM sodium phosphate, 5 mM MgCl2, 2 mM 4HB, 2 mM ATP, 1 mM CoA, 2 mM NAD^+, 1 mM DTT, 1 mg/ml purified Msed_0406, and 42 ng/ml Msed_0399. The reaction mixture was pre-heated for 5 min at 70° C. to allow accumulation of 4HB-CoA, and then initiated by addition of purified Msed_1321. For the oxygen-sensitivity assay, Msed_1321 was washed with 100 mM potassium phosphate, pH 7.5, to remove any DTT from the reaction buffer. […]
# [9] = Oxygen-sensitivity assay of 4-hydroxybutyryl-CoA dehydratase; conditions: exposed to air
# Protocol: as §5
# [10] = Scherf et al., 1993; cited from earlier work
molecule,measurement,setting,value
O=C(O)O [carbonic acid],apparent pKa of the ionization to bicarbonate,[1],about 6.3
B1,Km,[2],60 µM
same,Vmax,[2],16 µmol/min/mg
same,kcat,[2],15 s⁻¹
same,Km,[3],70 µM
same,Vmax,[3],20 µmol/min/mg
same,kcat,[3],19 s⁻¹
same,Vmax,[4],20 µmol/min/mg
same,Vmax,[5],16 µmol/min/mg
B2,Vmax,[6],1400 µmol/min/mg
same,Km,[7],180 µM
same,Vmax,[7],1400 µmol/min/mg
same,kcat,[7],1000 s⁻¹
B3,Vmax,[8],2.2 µmol/min/mg
same,duration of initial activation upon exposure to air,[9],about 15 hours
B4,time to irreversible inactivation when exposed to air,[10],~25 min

# — patent publication US10227617B2, “Sequestration of carbon dioxide with hydrogen to useful products” (UNIVERSITY OF GEORGIA RESEARCH FOUNDATION, INC., priority 2012, dated 2019)
